Assay results: article PMC6527160

How the values were obtained:
LASV L protein Strep407 [1] = molecular target: T1, LASV L protein Strep407 (Lassa virus Bantou 289, UniProt A0A3S8NV63 1-2217); assay: EMSA; […]) pH 7.0, 150 mM NaCl ([…]; details: protein: recombinant; tags: internal StrepII-tag inserted after residue 407; chain copies: 2; label: 32P (5' end, T4 PNK); single strand
LASV L protein Strep407 [2] = molecular target: T1, LASV L protein Strep407; assay: EMSA; 0-1 uM L, 0.6 uM RNA; 4 mM Mg2+; […]) pH 7.0, 150 mM NaCl ([…]; details: protein: recombinant; tags: internal StrepII-tag inserted after residue 407; chain copies: 2; label: 32P (5' end, T4 PNK); single strand

Binder	binding result (LASV L protein Strep407 [1])	binding result (LASV L protein Strep407 [2])
GCGCACCGGGGAUCCUAGGC (ssRNA) [vRNA 5'G]	binds	
CGCACCGGGGAUCCUAGGC (ssRNA) [vRNA 5']		binds
